The source of these data is US10513547B2, “Peptides and combination of peptides and scaffolds thereof for use in immunotherapy against colorectal carcinoma (CRC) and other cancers” (Immatics Biotechnologies GmbH, priority 2015, dated 2019).

The experiment concerns the target HLA-A*02:01 (Homo sapiens, UniProt P04439, D140Y/D185E/D98H/E176V/E277Q/G131W/G231S/I119V/I121R/I166T/I218V/L300P/L318F/N151K/N90K/P208A/P217A/Q86G/Q94H/R138H/R169H/T345S). Description: MHC binding assay (UV-ligand exchange, beta2m ELISA, peptide exchange yield). The note with it: binding to HLA-A*02:01. The text has this:
Candidate peptides for T cell based therapies according to the present invention were further tested for their MHC binding capacity (affinity). The individual peptide-MHC complexes were produced by UV-ligand exchange, where a UV-sensitive peptide is cleaved upon UV-irradiation, and exchanged with the peptide of interest as analyzed. Only peptide candidates that can effectively bind and stabilize the peptide-receptive MHC molecules prevent dissociation of the MHC complexes. To determine the yield of the exchange reaction, an ELISA was performed based on the detection of the light chain ([…]) of stabilized MHC complexes. The assay was performed as generally described in Rodenko et al. (Rodenko et al., 2006).
96 well MAXISorp plates (NUNC) were coated over night with 2 ug/ml streptavidin in PBS at room temperature, washed 4× and blocked for 1 h at 37° C. in 2% BSA containing blocking buffer. Refolded HLA-A*02:01/MLA-001 monomers served as standards, covering the range of 15-500 ng/ml. Peptide-MHC monomers of the UV-exchange reaction were diluted 100 fold in blocking buffer. Samples were incubated for 1 h at 37° C., washed four times, incubated with 2 ug/ml HRP conjugated anti-β2m for 1 h at 37° C., washed again and detected with TMB solution that is stopped with […]. Absorption was measured at 450 nm. Candidate peptides that show a high exchange yield (preferably higher than 50%, most preferred higher than 75%) are generally preferred for a generation and production of antibodies or fragments thereof, and/or T cell receptors or fragments thereof, as they show sufficient avidity to the MHC molecules and prevent dissociation of the MHC complexes.
Turning to “99 (KLLEVDLDTV; listed as Homo sapiens) [compound 99]”, the “Peptide exchange (MHC class I binding score, peptide exchange yield)” value (“Peptide exchange” below) is recorded as ““+++” (≥50 = +++)”.
Consider “115 (SLFDVSHML; listed as Homo sapiens) [compound 115]”, for which the “Peptide exchange” value is given as ““+++” (≥50 = +++)”.
In the case of “126 (TLAKYLMEL; listed as Homo sapiens) [compound 126]”, the “Peptide exchange” value was ““+++” (≥50 = +++)”.
Regarding “110 (LLGELPRLLLL; listed as Homo sapiens) [compound 110]”, the “Peptide exchange” value is ““+++” (≥50 = +++)”.
Next, “92 (WIDDTSAFV; listed as Homo sapiens) [compound 92]”: ““+++” (≥50 = +++)”; “107 (ALLGGGPYML; listed as Homo sapiens) [compound 107]”: ““+++” (≥50 = +++)”.
On to “156 (SLMMTIINL; listed as Homo sapiens) [compound 156]”, for which the “Peptide exchange” value is ““++++” (≥75% = ++++)”.
Consider “157 (SLIERDLKL; listed as Homo sapiens) [compound 157]”, for which the “Peptide exchange” value is reported as ““+++” (≥50 = +++)”.
On to “58 (AMADKMDMSL; listed as Homo sapiens) [compound 58]”, for which the “Peptide exchange” value is given as ““++” (≥20% = ++)”.
Then “4 (RLAELTVDEFL; listed as Homo sapiens) [compound 4]”, with ““+++” (≥50 = +++)”; and “82 (QLYEEPDTKL; listed as Homo sapiens) [compound 82]”, with ““++” (≥20% = ++)”; and “191 (QLFSEIHNL; listed as Homo sapiens) [compound 191]”, with ““++++″ (≥75% = ++++)”.
Next, “14 (FLDKPEDVLL; listed as Homo sapiens) [compound 14]”: ““++” (≥20% = ++)”.
For “85 (ILHDINSDGVL; listed as Homo sapiens) [compound 85]”, the “Peptide exchange” value was ““++” (≥20% = ++)”.
For “75 (EMIENIQSV; listed as Homo sapiens) [compound 75]”, the “Peptide exchange” value was ““++” (≥20% = ++)”.
Next, “8 (ALMLQGVDLL; listed as Homo sapiens) [compound 8]”: ““+++” (≥50 = +++)”.
Next, “44 (SLESKLTSV; listed as Homo sapiens) [compound 44]”: ““+++” (≥50 = +++)”; “170 (ALAGGITMV; listed as Homo sapiens) [compound 170]”: ““+++” (≥50 = +++)”; “43 (TLDAAQPRV; listed as Homo sapiens) [compound 43]”: ““++” (≥20% = ++)”.
As for “161 (FLKNELDNV; listed as Homo sapiens) [compound 161]”, the “Peptide exchange” value is given as ““+++” (≥50 = +++)”.
As for “40 (ALSNVIHKV; listed as Homo sapiens) [compound 40]”, the “Peptide exchange” value was ““++” (≥20% = ++)”.
Consider “69 (GMLNEAEGKAIKL; listed as Homo sapiens) [compound 69]”, for which the “Peptide exchange” value was ““++” (≥20% = ++)”.
Then “95 (AILDAHIEV; listed as Homo sapiens) [compound 95]”, with ““++++” (≥75% = ++++)”; and “71 (RLWTEIPTAI; listed as Homo sapiens) [compound 71]”, with ““+++” (≥50 = +++)”.
Next, “73 (YLFDIAVSM; listed as Homo sapiens) [compound 73]”: ““+++” (≥50 = +++)”; “176 (RTLDKVLEV; listed as Homo sapiens) [compound 176]”: ““++” (≥20% = ++)”; “52 (ALDSSNSMQTI; listed as Homo sapiens) [compound 52]”: ““++” (≥20% = ++)”.
On to “81 (ALLSQQTHL; listed as Homo sapiens) [compound 81]”, for which the “Peptide exchange” value is reported as ““+++” (≥50 = +++)”.
Then “104 (ILLTIKDDTIYL; listed as Homo sapiens) [compound 104]”, with ““+++” (≥50 = +++)”; and “97 (ALWWGVVTV; listed as Homo sapiens) [compound 97]”, with ““++” (≥20% = ++)”; and “188 (FLVDGPRVQL; listed as Homo sapiens) [compound 188]”, with ““+++” (≥50 = +++)”.
Then “45 (ALAELLHGA; listed as Homo sapiens) [compound 45]”, with ““+++” (≥50 = +++)”; and “93 (SLQELRLLL; listed as Homo sapiens) [compound 93]”, with ““++++” (≥75% = ++++)”; and “80 (QVDEVVDIMRV; listed as Homo sapiens) [compound 80]”, with ““++” (≥20% = ++)”.
Next, “130 (GLGGSQLIDTHL; listed as Homo sapiens) [compound 130]”: ““++” (≥20% = ++)”; “29 (QMLDVAIRV; listed as Homo sapiens) [compound 29]”: ““+++” (≥50 = +++)”.
As for “146 (ALSDETWGL; listed as Homo sapiens) [compound 146]”, the “Peptide exchange” value is listed as ““++” (≥20% = ++)”.
Next, “128 (MLDDRAYLV; listed as Homo sapiens) [compound 128]”: ““++” (≥20% = ++)”; “72 (YLLDYPNNLL; listed as Homo sapiens) [compound 72]”: ““+++” (≥50 = +++)”.
Then “113 (ILYDLQQNL; listed as Homo sapiens) [compound 113]”, with ““++” (≥20% = ++)”; and “177 (ALLQGAIESV; listed as Homo sapiens) [compound 177]”, with ““+++” (≥50 = +++)”.
As to “134 (GVAGGSILKGV; listed as Homo sapiens) [compound 134]”, the “Peptide exchange” value was ““++++” (≥75% = ++++)”.
Next, “76 (YLIGEKQHYL; listed as Homo sapiens) [compound 76]”: ““+++” (≥50 = +++)”; “179 (RLLSPLSSA; listed as Homo sapiens) [compound 179]”: ““+++” (≥50 = +++)”.
Next, “100 (SLDDFLATA; listed as Homo sapiens) [compound 100]”: ““+++” (≥50 = +++)”; “172 (LLLDTVTMQV; listed as Homo sapiens) [compound 172]”: ““+++” (≥50 = +++)”.
